Sequences and labels used below:
B1: α‐actinin‐2 rod domain (domain or fragment, UniProt P35609 274-746, looked up)
chain: AVNQENERLMEEYERLASELLEWIRRTIPWLENRTPEKTMQAMQKKLEDFRDYRRKHKPPKVQEKCQLEINFNTLQTKLRISNRPAFMPSEGKMVSDIAGAWQRLEQAEKGYEEWLLNEIRRLERLEHLAEKFRQKASTHETWAYGKEQILLQKDYESASLTEVRALLRKHEAFESDLAAHQDRVEQIAAIAQELNELDYHDAVNVNDRCQKICDQWDRLGTLTQKRREALERMEKLLETIDQLHLEFAKRAAPFNNWMEGAMEDLQDMFIVHSIEEIQSLITAHEQFKATLPEADGERQSIMAIQNEVEKVIQSYNIRISSSNPYSTVTMDELRTKWDKVKQLVPIRDQSLQEELARQHANERLRRQFAAQANAIGPWIQNKMEEIARSSIQITGALEDQMNQLKQYEHNIINYKNNIDKLEGDHQLIQEALVFDNKHTNYTMEHIRVGWELLLTTIARTINEVETQILTRD
notes: α-actinin-2, rod domain, residues 274-746; Detailed purification protocols are to be published elsewhere (Mlynek et al., in preparation); PDB 4D1E is the longer α-actinin-2 dimer, of which the rod domain is a stretch; also called rod domain of α‐actinin‐2

Data set [1] concerns the molecule itself. In words: SEC-MALS; Superdex‐200 10/300 Increase; 20 mM Tris–HCl pH 7.5, 100 mM NaCl, 50 mM arginine, 50 mM glutamic acid, 0.5 mM PMSF, 1 mM EDTA, 1 mM β‐mercaptoethanol; 100 μl injected at 2-4 mg/ml; 20°C; 0.5 ml/min. (In general: Size exclusion chromatography separates by hydrodynamic size, large species first.)
Data set [2] addresses B1. In words: cell-based or functional assay.
The target in data set [3] is B1. In words: SEC-MALS; Superdex‐200 10/300 Increase; 20 mM Tris–HCl pH 7.5, 100 mM NaCl, 50 mM arginine, 50 mM glutamic acid, 0.5 mM PMSF, 1 mM EDTA, 1 mM β‐mercaptoethanol; 100 μl injected at 2-4 mg/ml; 20°C; 0.5 ml/min. The following applies: both partners purified.

Broadly, the stoichiometry N is the number of molecules, sites or subunits per partner or assembly. For B1, in data set [1], the “stoichiometry N” value was 2.

B2: Δ91‐FATZ‐1 (domain or fragment, UniProt Q9NP98 92-299, looked up)
chain: PTVGGQLGTAGQGFSYSKSNGRGGSQAGGSGSAGQYGSDQQHHLGSGSGAGGTGGPAGQAGRGGAAGTAGVGETGSGDQAGGEGKHITVFKTYISPWERAMGVDPQQKMELGIDLLAYGAKAELPKYKSFNRTAMPYGGYEKASKRMTFQMPKFDLGPLLSEPLVLYNQNLSNRPSFNRTPIPWLSSGEPVDYNVDIGIPLDGETEEL
notes: FATZ-1 (calsarcin-2/myozenin-1) with a deletion of the 91 N-terminal residues; Detailed purification protocols are to be published elsewhere (Mlynek et al., in preparation); also called FATZ‐1 lacking the first 91 residues; calsarcin‐2
Consider B2, for which the “ΔGu°′ of the complex against ΔGu°′ of the rod domain alone, thermal unfolding (NanoDSF)” value in data set [2] is about 2 fold. Also, in data set [3], the “stoichiometry N” value is 2 Δ91‐FATZ‐1 molecules per rod domain dimer.

These data come from paper PMC7737771, “In‐depth interrogation of protein thermal unfolding data with MoltenProt” (Protein Science : A Publication of the Protein Society, 2020).
